# T1: LvHSF1 (rLvHSF1-GST) (Litopenaeus vannamei, UniProt X2D760 1-632)
# T1 sequence: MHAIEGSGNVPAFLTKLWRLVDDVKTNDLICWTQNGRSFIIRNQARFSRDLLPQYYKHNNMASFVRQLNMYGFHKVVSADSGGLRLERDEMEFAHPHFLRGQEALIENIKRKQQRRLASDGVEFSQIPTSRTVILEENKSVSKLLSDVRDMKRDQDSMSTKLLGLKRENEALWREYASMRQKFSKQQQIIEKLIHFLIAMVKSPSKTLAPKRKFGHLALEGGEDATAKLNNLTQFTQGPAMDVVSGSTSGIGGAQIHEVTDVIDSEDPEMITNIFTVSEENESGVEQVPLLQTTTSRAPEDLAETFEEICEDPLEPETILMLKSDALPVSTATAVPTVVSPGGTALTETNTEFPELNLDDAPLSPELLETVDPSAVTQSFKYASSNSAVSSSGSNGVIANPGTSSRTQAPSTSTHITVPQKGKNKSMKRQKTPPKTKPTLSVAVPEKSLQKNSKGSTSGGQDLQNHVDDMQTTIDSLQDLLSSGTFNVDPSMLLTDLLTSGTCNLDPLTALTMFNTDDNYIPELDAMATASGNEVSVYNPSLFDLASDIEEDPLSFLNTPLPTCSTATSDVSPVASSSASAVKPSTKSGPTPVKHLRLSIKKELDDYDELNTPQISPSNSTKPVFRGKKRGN
# Biological target: T1, LvHSF1 (rLvHSF1-GST)
# Assay: EMSA; EMSA: 10 ug recombinant protein, 20 fmol biotin probe, LightShift Chemiluminescent EMSA kit, 5% native PAGE; buffer, pH and temperature not stated
# Conditions: blunt
# [1] = chain copies: 3, label: biotin (labeled probe)
Binder,binding result [1],"binding result (chain copies: 3, label: biotin)"
SWD-Probe1 (dsDNA) DNA 1: TACCACTAGGACTTTCTATAGAACCATCTTTGCTTCACTATAACA DNA 2: TGTTATAGTGAAGCAAAGATGGTTCTATAGAAAGTCCTAGTGGTA,binds,
Mut-SWD-Probe1 (dsDNA) DNA 1: TACCACTAGGACTTTCCAAACGGCCAGGTTTGCTTCACTATAACA DNA 2: TGTTATAGTGAAGCAAACCTGGCCGTTTGGAAAGTCCTAGTGGTA,,no binding
SWD-Probe2 (dsDNA) DNA 1: GTTGGGATTTCCATGATGACTTTTCGAGGAATTAGTGGCTGCGTG DNA 2: CACGCAGCCACTAATTCCTCGAAAAGTCATCATGGAAATCCCAAC,binds,

# Source: article PMC13086497, “Heat shock factor regulation of antimicrobial peptides expression suggests a conserved defense mechanism induced by febrile temperature in arthropods”
